Residue numbers refer to the chain shown, from its start.
B1: SC03-024 (scFv)
scFv: AMAQVQLVESGSELKIPGASVKVSCKATGYTFTRYSLNWVRQAPGQGLEWVGWINTQTGNSNYGQAFSGRFVFSLDTSVSTAYLQISSLQAEDTATYYCARKSAGSNAFDIWGQGTMVTVSSGTGGSGGTGSGTGGSTQSVVTQPPSVSAAPGQKATISCSGSSSNIGNNYVSWYQQLPGTAPKLLIYDNNKRPSGIPNRFSGSKSGTSATLGITGLQTGDEADYYCGTWDSSLSAYVFGTGTKVTVLGAA
B2: SC03-026 (scFv)
scFv: AMAQVQLVQSGGGLVQPGGSLRLSCAASGFTFSSYAMHWVRQAPGKGLEYVSGISSNGGSTYYANSVKGRFTISRDNSKNTLYLQMGSLRAEDMAVYYCARTTNRAFDIWGQGTMVTVSSGTGGSGGTGSGTGGSTDIQMTQSPDSLAVSLGERATINCKSSQSILYSSNSKNYLGWYQQKPGQPPKLLIYWASTRESGVPDRFSGSGSGTDFTLTISSLQAEDVAVYYCQQYYSTPYSFGQGTKVEIKRAA
B3: SC03-023 (scFv)
scFv: AMAQVQLQQWGAGLLKPSETLSLTCAVYGGSFSGFYWSWIRQPPGKGLEWIGEINHSGSTNYNPSLKSRVTISVDTSKNQFSLKLSSVTAADTAVYYCARRVEVVEYQLLRPRYKSWFDPWGQGTLVTVSSGTGGSGGTGSGTGGSTQSALTQPRSVSGSPGQSVTISCTGSSSTVGGYNYVSWYQQHPGKAPKLMIYDVSKRPSGVSNRFSGSKSGNTASLTISGLQAEDEADYYCSSYTSSSTYVFGTGTKVTVLGAA
B4: SC03-025 (scFv)
scFv: AMAEVQLVESGGGLVQPGGSLRLSCAASGFTFSSYAMHWVRQAPGKGLEYVSGISSNGGSTYYANSVKGRFTISRDNSKNTLYLQMGSLRAEDMAVYYCARTTNRAFDIWGQGTMVTVSSGTGGSGGTGSGTGGSTDIQLTQSPDSLAVSLGERATINCKSSQSVLYSSNNKNYLAWYQQKPGQPPKLLIYWASIRESGVPDRFSGSGSGTDFTLTISSLQAEDVAVYYCQQYYNIPYAFGQGTKLEIKRAA
B5: SC03-020 (scFv)
scFv: AMAEVQLVQSGSEVKKPGESLKISCKGSGYGFITYWIGWVRQMPGKGLEWMGIIYPGDSETRYSPSFQGQVTISADKSINTAYLQWSSLKASDTAIYYCAGGSGISTPMDVWGQGTTVTVSSGTGGSGGTGSGTGGSTDIQMTQSPDSLAVSLGERATINCKSSQKILHSSNNKNYLAWYQQKPGQPPKLLIYWASTRESGVPDRFSGSGSGTDFTLTISSLQAEDVAVYYCQQYYSTPPVFGGGTKVEIKRAA
B6: SC03-021 (scFv)
scFv: B5 scFv with E4Q, S12T, I140V, Q141V, K166S, I167V, E199Q, V241T, G244Q
B7: SC03-034 (scFv)
scFv: AMAEVQLVQSGAEVKKPGESLKISCKGSGYGFITYWIGWVRQMPGKGLEWMGIIYPGDSETRYSPSFQGQVTISADKSINTAYLQWSSLKASDTAIYYCAGGSGISTPMDVWGQGTTVTVSSGTGGSGGTGSGTGGSTDVVMTQSPDSLAVSLGERATINCKSSQSILNRSNNKNYLAWYQQKPGQPPKLLIYWASTRESGVPDRFSGSGSGTDFNLTISSLQAEDVAVYYCQQYNNWPLTFGGGTKVDIKRAA
B8: SC03-036 (scFv)
scFv: AMAEVQLVQSGTEVKKPGESLKISCKGSGYGFITYWIGWVRQMPGKGLEWMGIIYPGDSETRYSPSFQGQVTISADKSINTAYLQWSSLKASDTAIYYCAGGSGISTPMDVWGQGTTVTVSSGTGGSGGTGSGTGGSTDIQMTQSPDSLAVSLGERATINCKSSQSVLHSPNNKNYLAWYQQKPGQPPKLLIYWASTRESGVPDRFSGSGSGTDFTLTISSLQAEDVAVYYCQQYYSTNSFGQGTKLEIKRAA
B9: SC03-055 (scFv)
scFv: AMAQVQLQQWGAGLLKPSETLSLTCAVYGGSFSGFYWSWIRQPPGKGLEWIGEINHSGSTNYNPSLKSRVTISADTSKNQFSLKLSSVTAADTAVYYCARRVEVVEYQLLRPRYKSWFDPWGQGTLVTVSSGTGGSGGTGSGTGGSTQSVLTQPPSVSGAPGQRVSISCSGSGANGGTDPVSWYQKFPGTAPHLLIYDNNKRPSGIPDRFSGSKSGASATLDITGLQTGDEADYYCGAWDPSLSGYVFGTGTQLTVLSAA
B10: SC03-046 (scFv)
scFv: B2 scFv with Q4E, I138V, Q139V, I165V, S171N, G176A, T214S, T236P, S239T, Q242P
B11: SC03-039 (scFv)
scFv: AMAEVQLVESGGGLVQPGGSLRLSCAASGFTFSSYAMSWVRQAPGKGLEWVSVIYSGGTSTYYADSVKGRFTISRDNSKNTLYLQMNSLRAEDTAVYFCAKGSKWNDVGGGDYWGQGTLVTVSSGTGGSGGTGSGTGGSTNFMLTQPHSVSESPGKTVTISCAGSSGSIASNYVQWYQQRPGSAPTTVIYEDNQRPSGVPDRFSGSIDSSSNSASLTISGLKTEDEADYYCQSYDGYLWIFGGGTKLTVLGAA
B12: SC03-043 (scFv)
scFv: B2 scFv with M140L, I165V, S168R, S171N, G176A, P201S, D202E, V246L
B13: SC03-051 (scFv)
scFv: B5 scFv with E4Q, S12T, S164G, K166S, H169Y, N173D, P240Y, V241T, G244Q
B14: SC03-057 (scFv)
scFv: AMAQVQLVQSGAEVKKPGSSVKVSCKASGGTFSRYAISWVRQAPGQGLEWMGRINPILNLTNYAQKFQGRVTITADKSTSTAYMEMSSLRSEDTAIYYCASPDIVVAGHASPPHYTMDVWGQGTTVTVSSGTGGSGGTGSGTGGSTDIQMTQSPSSLSASVGDRVTITCRASQGIRNDLGWYQQKPGKAPNLLIYQASALQSGVPSRFSGSESGAEFTLTISSLHPDDFATYYCQQYHDFPITFGQGTRLEIKRAA
B15: SC03-031 (scFv)
scFv: AMAQVQLVQSGADVKKPGSSVKVSCEASGGTFSSYAISWVRQAPGQGLEWMGRIIPILGITNYAQKFQGRVTITADKSTGTGNMELSSLRSEDTAVYYCARESGGGYDNHFDYWGQGTLVTVSSGTGGSGGTGSGTGGSTQSVLTQPPSASGTPGQRVTISCSGGSSNIGSNTVNWYQQLPGTAPKLVIYANNQRPSGVPDRFSASKSGTSASLAISGLQSEDEADYYCAAWDDSLTGGVFGGGTQLTVLSAA
B16: SC03-040 (scFv)
scFv: B2 scFv with K160R, I165V, S171N, G176A, T236S, V246L
B17: SC03-054 (scFv)
scFv: B2 scFv with Q4E, L14V, G19R, M140L, I165V, S171N, G176A, S207G
B18: SC03-044 (scFv)
scFv: B4 scFv with S10T, L140M, I195T, S205R, V225L, N235S, I236T, A239S
B19: SC03-037 (scFv)
scFv: AMAKVQLVQSGGGLIQPGGSLRLSCAASGFTVSSNYMSWVRQAPGKGLEWVSIVFSGGSTYYADSVKGRFTISRDNSKNTLYLQMNSLRAEDTAVYYCARDAHRGFGMDVWGQGTTVTVSSGTGGSGGTGSGTGGSTSSELTQDPAVSVALGQTVRITCQGDSLRSYYASWYQQKPGQAPVLVIYGKNNRPSGIPDRFSGSSSGNTASLTITGAQAEDEADYYCNGRDSSGNHWVFGGGTKLTVLGAA
B20: SC03-038 (scFv)
scFv: B19 scFv with K4E, N205D, G226S
B21: SC03-033 (scFv)
scFv: AMAQVQLVQSGTEVKKPGESLKISCKGSGYGFITYWIGWVRQMPGKGLEWMGIIYPGDSETRYSPSFQGQVTISADKSINTAYLQWSSLKASDTAIYYCAGGSGISTPMDVWGQGTTVTVSSGTGGSGGTGSGTGGSTDVVMTQSPDSLAVSLGERATINCKTSHNIFSRSNNKDYLAWYQQKPGQPPRLLIYWASTRASGVPERFSGSGSGTDFSLTISSLQAEDVAVYYCQQYYSSPMYSFGQGTKVEIKRAA

target: UV-inactivated SARS-CoV preparation (Frankfurt 1 strain) (SARS-CoV strain Frankfurt 1); experiment: phage ELISA, plate 2 (no phage 0.211)

Row | Binder | OD492nm [OD492nm]
1 | B1 | 0.235
2 | B2 | 1.07
3 | B3 | 1.31
4 | B4 | 1.64
5 | B5 | 0.671
6 | B6 | 0.215

target: UV-inactivated SARS-CoV preparation (Frankfurt 1 strain) (SARS-CoV strain Frankfurt 1); experiment: phage ELISA, plate 3 (no phage 0.054)

Row | Binder | OD492nm [OD492nm]
7 | B7 | 0.802
8 | B8 | 0.24
9 | B9 | 0.608
10 | B10 | 1.9
11 | B11 | 0.851
12 | B12 | 1.27
13 | B13 | 0.602
14 | B14 | 1.19

target: UV-inactivated SARS-CoV preparation (Frankfurt 1 strain) (SARS-CoV strain Frankfurt 1); experiment: phage ELISA, plate 4 (no phage 0.051)

Row | Binder | OD492nm [OD492nm]
15 | B15 | 0.635
16 | B16 | 0.616
17 | B17 | 0.428
18 | B18 | 0.518
19 | B19 | 0.287
20 | B20 | 0.314
21 | B21 | 0.288
